Measured values reported in publication PMC5987543.

Biological target: α-synuclein, P37840
Experiment: SPR; Biacore X100; monomeric α-syn immobilised on a streptavidin-coated chip; S100A9 injected at increasing concentrations in a single cycle; HBS-P+ (10 mM HEPES, 150 mM NaCl, 0.001% P20), pH 7.4, 25 °C; steady-state fit Rc = C*Rmax/(Kd + C); apparent; three repeats
Settings: remark: other sources report otherwise

B1: S100A9, P06702 1-114 (natural protein)
chain: MTCKMSQLERNIETIINTFHQYSVKLGHPDTLNQGEFKELVRKDLQNFLKKENKNEKVIEHIMEDLDTNADKQLSFEEFIMLMARLTWASHEKMHEGDEGPGHHHKPGLGEGTP
B1 gave a Kd of 5 µM.
